Test results: patent US20250333518A1 (ROCK BIOMEDICAL, published 2025)

T1: CD20 (UniProt P11836 1-297, limits assumed)
T1 construct: also called the antigen (of Rituximab and Obinutuzumab)
T1 sequence (looked up): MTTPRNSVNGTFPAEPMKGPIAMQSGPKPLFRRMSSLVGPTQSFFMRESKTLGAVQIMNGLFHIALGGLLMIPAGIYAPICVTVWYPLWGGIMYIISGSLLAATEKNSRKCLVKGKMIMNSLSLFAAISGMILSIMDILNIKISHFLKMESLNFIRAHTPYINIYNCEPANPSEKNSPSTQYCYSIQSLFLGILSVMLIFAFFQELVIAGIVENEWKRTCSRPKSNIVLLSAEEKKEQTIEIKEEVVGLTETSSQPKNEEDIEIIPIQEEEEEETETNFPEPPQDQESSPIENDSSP

B1: Rituximab (MabThera® or Rituxan®) population produced by the SAII A3 Fut8 KO cells according to the present disclosure (antibody, human IgG1, kappa, V domains shown)
VH: QVQLQQPGAELVKPGASVKMSCKASGYTFTSYNMHWVKQTPGRGLEWIGAIYPGNGDTSYNQKFKGKATLTADKSSSTAYMQLSSLTSEDSAVYYCARSTYYGGDWYFNVWGAGTTVTVSA
VL: QIVLSQSPAILSASPGEKVTMTCRASSSVSYIHWFQQKPGSSPKPWIYATSNLASGVPVRFSGSGSGTSYSLTISRVEAEDAATYYCQQWTSNPPTFGGGTKLEIKR
modifications: N-glycan: sialylated complex type glycans around 83.4% of the glycans, no core fucose
notes: Differs from the commercial product in the glycan profile only; also called Biobetter Rituximab; glycoengineered MabThera®
B2: Rituximab, commercially available product (MabThera®) (antibody, human IgG1, kappa, V domains shown)
VH: B1 VH
VL: B1 VL
notes: Bought product; also called Rituxan

Molecular target: T1, CD20
Test: ELISA, target binding

Binder | EC50 [nM]
B1 | 0.77
B2 | 0.544
